The supplement of paper PMC7877785
± gives the uncertainty stated by the source.

Assay: self-splicing fitness, log relative to wild type (ln ratio); higher = more splicing; Tetrahymena group I intron in knt gene, E. coli kanamycin selection, DiMSum; sequences stand for … in CUCUCU…GGAGGGAAAAGUUAUCAGGCAUGCACCUGGUAGCUAGUCUUUAAACCAAUAGAUUGCAUCGGUUUAAAAGGCAAGACCGUCAAAUUGCGGGAAAGGGGUCAACAGCCGUUCAGUACCAAGUCUCAGGGGAAACUUUGAGAUGGCCUUGCAAAGGGUAUGGUAAUAAGCUGACGGACAUGGUCCUAACCACGCAGCCAAGUCCUAAGUCAACAGAUCUUCUGUUGAUAUGGAUGCAGUUCACAGACUAAAUGUCGGUCGGGGAAGAUGUAUUCUUCUCAUAAGAUAUAGUCGGACCUCUCCUUAAUGGGAGCUAGCGGAUGAAGUGAUGCAACACUGGAGCCGCUGGGAACUAAUUUGUAUGCGAAAGUAUAUUGAUUAGUUUUGGAGUACUCGUGGUCG
In short: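 Six replicate transformations of E. coli BL21(DE3) with a pET-22b(+) library were grown overnight at 37°C or 30°C. The library randomised all eight P1ex-region intron nucleotides, the intron lying in the knt kanamycin-resistance gene, and plates were LB agar with or without 25 μg/mL kanamycin plus 100 μg/mL carbenicillin, 50 μM IPTG and 0.2% rhamnose. Pooled colonies were amplicon-sequenced on an Illumina HiSeq 2500, and fitness is the DiMSum error-weighted combination of wild-type-normalised replicate fold changes, kanamycin versus none.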

| Sequence | self-splicing fitness (ln) (30 °C) | self-splicing fitness (ln) (37 °C) |
| --- | --- | --- |
| AAGUAGCAAUAUUACGUUGC | -3.66 ± 0.14 | -3.19 ± 0.21 |
| AAGUAGCAAUAUUACGUUGG | -2.96 ± 0.18 | -2.2 ± 0.23 |
| AAUAAGCAAUAUUACGAACU | -0.169 ± 0.11 | 0.509 ± 0.14 |
| AAUAAGCAAUAUUACGAGCC | -3.73 ± 0.29 | -1.64 ± 0.22 |
| AAUAAGCAAUAUUACGCAGA | -3.73 ± 0.3 | -2.38 ± 0.23 |
| AAUAAGCAAUAUUACGCCGA | -0.856 ± 0.14 | -0.632 ± 0.16 |
| AAUAAGCAAUAUUACGCGAA | -1.74 ± 0.12 | -1.01 ± 0.12 |
| AAUAAGCAAUAUUACGCGGU | -3.83 ± 0.24 | -2.36 ± 0.17 |
| AAUAAGCAAUAUUACGCUGU | -2.61 ± 0.23 | -1.92 ± 0.22 |
| AAUAAGCAAUAUUACGCUUG | -1.39 ± 0.13 | -0.982 ± 0.15 |
| AAUAAGCAAUAUUACGGGCU | -1.54 ± 0.14 | -1.6 ± 0.14 |
| AAUAAGCAAUAUUACGUAUG | -2.2 ± 0.11 | -0.966 ± 0.12 |
| AAUAAGCAAUAUUACGUCUA | -0.766 ± 0.077 | 0.434 ± 0.1 |
| AAUAAGCAAUAUUACGUUAG | -4.52 ± 0.19 | -2.69 ± 0.17 |
| AAUAAGCAAUAUUACGUUGG | -2.74 ± 0.28 | -3 ± 0.38 |
| AAUAAGCAAUAUUACGUUUG | -3.16 ± 0.11 | -1.36 ± 0.1 |
| AAUCAGCAAUAUUACGAACC | -0.433 ± 0.11 | 0.499 ± 0.18 |
| AAUCAGCAAUAUUACGACCA | -0.116 ± 0.1 | 0.885 ± 0.12 |
| AAUCAGCAAUAUUACGAGAU | -2.72 ± 0.11 | -0.708 ± 0.1 |
| AAUCAGCAAUAUUACGAUAC | -0.844 ± 0.081 | -0.307 ± 0.11 |
| AAUCAGCAAUAUUACGAUCA | 0.364 ± 0.09 | 0.109 ± 0.11 |
| AAUCAGCAAUAUUACGCAUC | -0.287 ± 0.082 | 0.0734 ± 0.094 |
| AAUCAGCAAUAUUACGCCCA | -0.426 ± 0.16 | 0.216 ± 0.21 |
| AAUCAGCAAUAUUACGCCGU | -0.744 ± 0.085 | -0.531 ± 0.099 |

| Sequence | self-splicing fitness (ln) (30 °C) | self-splicing fitness (ln) (37 °C) |
| --- | --- | --- |
| AAUCAGCAAUAUUACGCCUA | -0.0982 ± 0.08 | 0.103 ± 0.09 |
| AAUCAGCAAUAUUACGCGAG | -0.887 ± 0.068 | -1.07 ± 0.088 |
| AAUCAGCAAUAUUACGCGUG | -0.227 ± 0.074 | 0.204 ± 0.085 |
| AAUCAGCAAUAUUACGGAAC | -1.37 ± 0.064 | -0.769 ± 0.093 |
| AAUCAGCAAUAUUACGGCAG | -1 ± 0.095 | -1.32 ± 0.11 |
| AAUCAGCAAUAUUACGGGUC | -2.03 ± 0.086 | -1.76 ± 0.11 |
| AAUCAGCAAUAUUACGGUUA | -0.439 ± 0.08 | -0.408 ± 0.066 |
| AAUCAGCAAUAUUACGGUUG | -1.91 ± 0.082 | -0.913 ± 0.1 |
| AAUCAGCAAUAUUACGUAAA | -0.168 ± 0.067 | 0.573 ± 0.099 |
| AAUCAGCAAUAUUACGUAGU | -0.0974 ± 0.059 | 0.211 ± 0.074 |
| AAUCAGCAAUAUUACGUCCC | -0.818 ± 0.1 | 0.164 ± 0.14 |
| AAUCAGCAAUAUUACGUCGC | -2.06 ± 0.17 | -1.24 ± 0.17 |
| AAUCAGCAAUAUUACGUGAU | -0.823 ± 0.048 | -0.268 ± 0.067 |
| AAUCAGCAAUAUUACGUGCC | -1.4 ± 0.14 | -0.598 ± 0.16 |
| AAUCAGCAAUAUUACGUUCU | 0.0868 ± 0.061 | 0.0857 ± 0.085 |
| AAUGAGCAAUAUUACGAGAG | – | -2.7 ± 0.41 |
| AAUGAGCAAUAUUACGAGUG | -3.11 ± 0.27 | -2.23 ± 0.23 |
| AAUGAGCAAUAUUACGAUGA | -2.16 ± 0.12 | -1.77 ± 0.15 |
| AAUGAGCAAUAUUACGCAGC | -3.14 ± 0.44 | -2.54 ± 0.36 |
| AAUGAGCAAUAUUACGCAGG | -2.85 ± 0.14 | -3.18 ± 0.29 |
| AAUGAGCAAUAUUACGCAUG | -2.58 ± 0.17 | -0.519 ± 0.12 |
| AAUGAGCAAUAUUACGCAUU | -3.92 ± 0.47 | -2.74 ± 0.36 |
| AAUGAGCAAUAUUACGCCCG | -2.18 ± 0.43 | -1.76 ± 0.42 |
| AAUGAGCAAUAUUACGCGCA | -2.54 ± 0.34 | -1.76 ± 0.49 |

| Sequence | self-splicing fitness (ln) (30 °C) | self-splicing fitness (ln) (37 °C) |
| --- | --- | --- |
| AAUGAGCAAUAUUACGCGUU | -3.81 ± 0.27 | -2.06 ± 0.23 |
| AAUGAGCAAUAUUACGCUGA | -3.08 ± 0.38 | -2.12 ± 0.24 |
| AAUGAGCAAUAUUACGGAAU | -4.25 ± 0.37 | -2.34 ± 0.32 |
| AAUGAGCAAUAUUACGGAGU | – | -0.994 ± 0.44 |
| AAUGAGCAAUAUUACGGGUA | – | -0.858 ± 0.23 |
| AAUGAGCAAUAUUACGGUCU | -1.96 ± 0.13 | -0.956 ± 0.13 |
| AAUGAGCAAUAUUACGGUGU | -4.53 ± 0.29 | -2.55 ± 0.19 |
| AAUGAGCAAUAUUACGGUUA | -3.02 ± 0.22 | -1.86 ± 0.15 |
| AAUGAGCAAUAUUACGUAAA | -3.26 ± 0.18 | -1.1 ± 0.18 |
| AAUGAGCAAUAUUACGUAUG | – | -2.92 ± 0.28 |
| AAUGAGCAAUAUUACGUGUG | -4.35 ± 0.3 | -1.65 ± 0.17 |
| AAUGAGCAAUAUUACGUUGA | -3.71 ± 0.24 | -2.25 ± 0.17 |
| AAUUAGCAAUAUUACGAAGA | -1.25 ± 0.17 | -0.985 ± 0.16 |
| AAUUAGCAAUAUUACGACUA | 0.0301 ± 0.1 | 0.169 ± 0.099 |
| AAUUAGCAAUAUUACGCAGA | -1.71 ± 0.33 | -1.24 ± 0.31 |
| AAUUAGCAAUAUUACGCAGG | -2.44 ± 0.23 | -1.89 ± 0.23 |
| AAUUAGCAAUAUUACGCAUC | -2.79 ± 0.24 | -1.15 ± 0.2 |
| AAUUAGCAAUAUUACGCCGG | -2.62 ± 0.34 | -0.87 ± 0.4 |
| AAUUAGCAAUAUUACGCUGA | -2.75 ± 0.4 | -2.42 ± 0.27 |
| AAUUAGCAAUAUUACGGACC | – | -1.07 ± 0.48 |
| AAUUAGCAAUAUUACGGAGC | -2.52 ± 0.3 | -2.64 ± 0.33 |
| AAUUAGCAAUAUUACGGAUA | -1.75 ± 0.11 | -0.926 ± 0.11 |
| AAUUAGCAAUAUUACGGGGG | -2.91 ± 0.15 | -2.9 ± 0.27 |
| AAUUAGCAAUAUUACGUAAG | -1.82 ± 0.12 | -0.936 ± 0.13 |

| Sequence | self-splicing fitness (ln) (30 °C) | self-splicing fitness (ln) (37 °C) |
| --- | --- | --- |
| AAUUAGCAAUAUUACGUACA | -0.782 ± 0.086 | -0.498 ± 0.096 |
| AAUUAGCAAUAUUACGUAGC | -3.24 ± 0.25 | -1.08 ± 0.32 |
| AAUUAGCAAUAUUACGUCAU | -2.24 ± 0.18 | -1.7 ± 0.17 |
| AAUUAGCAAUAUUACGUCCC | -0.346 ± 0.41 | -0.0336 ± 0.49 |
| AAUUAGCAAUAUUACGUGCG | -0.879 ± 0.12 | -0.209 ± 0.14 |
| AAUUAGCAAUAUUACGUUCG | -1.16 ± 0.12 | -0.728 ± 0.18 |
| ACAAAGCAAUAUUACGACCG | -0.343 ± 0.1 | 0.578 ± 0.13 |
| ACAAAGCAAUAUUACGAUAU | -2.1 ± 0.088 | -1.15 ± 0.1 |
| ACAAAGCAAUAUUACGCAUC | -3.49 ± 0.21 | -1.74 ± 0.2 |
| ACAAAGCAAUAUUACGCCCG | -0.191 ± 0.13 | 0.177 ± 0.16 |
| ACAAAGCAAUAUUACGCCUG | -0.933 ± 0.07 | -0.0625 ± 0.085 |
| ACAAAGCAAUAUUACGGGGC | -3.69 ± 0.23 | -3.28 ± 0.27 |
| ACAAAGCAAUAUUACGGUAA | -2.45 ± 0.17 | -1.49 ± 0.13 |
| ACAAAGCAAUAUUACGUACG | -1.84 ± 0.068 | -0.615 ± 0.087 |
| ACAAAGCAAUAUUACGUAUC | -2.27 ± 0.072 | -1.69 ± 0.099 |
| ACAAAGCAAUAUUACGUCAG | -2.7 ± 0.14 | -1.47 ± 0.12 |
| ACAAAGCAAUAUUACGUCGA | -1.98 ± 0.092 | -1.02 ± 0.094 |
| ACAAAGCAAUAUUACGUGGA | -3.55 ± 0.15 | -2.44 ± 0.11 |
| ACAAAGCAAUAUUACGUUCU | -0.539 ± 0.055 | -0.567 ± 0.065 |
| ACACAGCAAUAUUACGAAGG | -1.75 ± 0.061 | -2.18 ± 0.11 |
| ACACAGCAAUAUUACGACUA | -1.22 ± 0.091 | -0.346 ± 0.084 |
| ACACAGCAAUAUUACGAGAC | -3.25 ± 0.14 | -2.54 ± 0.17 |
| ACACAGCAAUAUUACGAUAU | -1.63 ± 0.08 | -1.62 ± 0.098 |
| ACACAGCAAUAUUACGCACA | -1.16 ± 0.1 | -0.111 ± 0.1 |
